Patent publication US20090011997A1 (THERATECHNOLOGIES, published 2009)
Bridge positions count the residues as written; N and C are the ends. Square brackets hold non-standard residues; d marks the D form. Ends that are not written are not given here.

B1: bifunctional hormone of SEQ ID NO: 42 (peptide)
peptide: Ac-EH[dF]RWGRRSSCFGGRMDRIGAQSGLGCNSFRY-NH2
modifications: disulfide 11-27
SMILES: CC[C@H](C)[C@@H]1NC(=O)[C@H](CCCNC(=N)N)NC(=O)[C@H](CC(=O)O)NC(=O)[C@H](CCSC)NC(=O)[C@H](CCCNC(=N)N)NC(=O)CNC(=O)CNC(=O)[C@H](Cc2ccccc2)NC(=O)[C@@H](NC(=O)[C@H](CO)NC(=O)[C@H](CO)NC(=O)[C@H](CCCNC(=N)N)NC(=O)[C@H](CCCNC(=N)N)NC(=O)CNC(=O)[C@H](Cc2c[nH]c3ccccc23)NC(=O)[C@H](CCCNC(=N)N)NC(=O)[C@@H](Cc2ccccc2)NC(=O)[C@H](Cc2c[nH]cn2)NC(=O)[C@H](CCC(=O)O)NC(C)=O)CSSC[C@@H](C(=O)N[C@@H](CC(N)=O)C(=O)N[C@@H](CO)C(=O)N[C@@H](Cc2ccccc2)C(=O)N[C@@H](CCCNC(=N)N)C(=O)N[C@@H](Cc2ccc(O)cc2)C(N)=O)NC(=O)CNC(=O)[C@H](CC(C)C)NC(=O)CNC(=O)[C@H](CO)NC(=O)[C@H](CCC(N)=O)NC(=O)[C@H](C)NC(=O)CNC1=O
B2: bifunctional hormone of SEQ ID NO: 40 (peptide)
peptide: SLRRSSCFGGRMDRIGAQSGLGCNSFRYHXRW
modifications: disulfide bridge between C residues at positions 7 and 23; D-Phe (f) at position 30; C-terminal amidation (NH2)
B3: bifunctional hormone of SEQ ID NO: 39 (peptide)
peptide: Ac-H[dF]RWGRRSSCFGGRMDRIGAQSGLGCNSFRY-NH2
modifications: disulfide 10-26
SMILES: CC[C@H](C)[C@@H]1NC(=O)[C@H](CCCNC(=N)N)NC(=O)[C@H](CC(=O)O)NC(=O)[C@H](CCSC)NC(=O)[C@H](CCCNC(=N)N)NC(=O)CNC(=O)CNC(=O)[C@H](Cc2ccccc2)NC(=O)[C@@H](NC(=O)[C@H](CO)NC(=O)[C@H](CO)NC(=O)[C@H](CCCNC(=N)N)NC(=O)[C@H](CCCNC(=N)N)NC(=O)CNC(=O)[C@H](Cc2c[nH]c3ccccc23)NC(=O)[C@H](CCCNC(=N)N)NC(=O)[C@@H](Cc2ccccc2)NC(=O)[C@H](Cc2c[nH]cn2)NC(C)=O)CSSC[C@@H](C(=O)N[C@@H](CC(N)=O)C(=O)N[C@@H](CO)C(=O)N[C@@H](Cc2ccccc2)C(=O)N[C@@H](CCCNC(=N)N)C(=O)N[C@@H](Cc2ccc(O)cc2)C(N)=O)NC(=O)CNC(=O)[C@H](CC(C)C)NC(=O)CNC(=O)[C@H](CO)NC(=O)[C@H](CCC(N)=O)NC(=O)[C@H](C)NC(=O)CNC1=O
B4: bifunctional hormone of SEQ ID NO: 38 (peptide)
peptide: Ac-HFRWGRRSSCFGGRMDRIGAQSGLGCNSFRY-NH2
modifications: disulfide 10-26
SMILES: CC[C@H](C)[C@@H]1NC(=O)[C@H](CCCNC(=N)N)NC(=O)[C@H](CC(=O)O)NC(=O)[C@H](CCSC)NC(=O)[C@H](CCCNC(=N)N)NC(=O)CNC(=O)CNC(=O)[C@H](Cc2ccccc2)NC(=O)[C@@H](NC(=O)[C@H](CO)NC(=O)[C@H](CO)NC(=O)[C@H](CCCNC(=N)N)NC(=O)[C@H](CCCNC(=N)N)NC(=O)CNC(=O)[C@H](Cc2c[nH]c3ccccc23)NC(=O)[C@H](CCCNC(=N)N)NC(=O)[C@H](Cc2ccccc2)NC(=O)[C@H](Cc2c[nH]cn2)NC(C)=O)CSSC[C@@H](C(=O)N[C@@H](CC(N)=O)C(=O)N[C@@H](CO)C(=O)N[C@@H](Cc2ccccc2)C(=O)N[C@@H](CCCNC(=N)N)C(=O)N[C@@H](Cc2ccc(O)cc2)C(N)=O)NC(=O)CNC(=O)[C@H](CC(C)C)NC(=O)CNC(=O)[C@H](CO)NC(=O)[C@H](CCC(N)=O)NC(=O)[C@H](C)NC(=O)CNC1=O
B5: bifunctional hormone of SEQ ID NO: 31 (peptide)
peptide: Ac-H[dF]RWGKPMCHFGGRMDRISCYR-NH2
modifications: disulfide 9-20
SMILES: CC[C@H](C)[C@@H]1NC(=O)[C@H](CCCNC(=N)N)NC(=O)[C@H](CC(=O)O)NC(=O)[C@H](CCSC)NC(=O)[C@H](CCCNC(=N)N)NC(=O)CNC(=O)CNC(=O)[C@H](Cc2ccccc2)NC(=O)[C@H](Cc2c[nH]cn2)NC(=O)[C@@H](NC(=O)[C@H](CCSC)NC(=O)[C@@H]2CCCN2C(=O)[C@H](CCCCN)NC(=O)CNC(=O)[C@H](Cc2c[nH]c3ccccc23)NC(=O)[C@H](CCCNC(=N)N)NC(=O)[C@@H](Cc2ccccc2)NC(=O)[C@H](Cc2c[nH]cn2)NC(C)=O)CSSC[C@@H](C(=O)N[C@@H](Cc2ccc(O)cc2)C(=O)N[C@@H](CCCNC(=N)N)C(N)=O)NC(=O)[C@H](CO)NC1=O
B6: bifunctional hormone of SEQ ID NO: 36 (peptide)
peptide: MEHFRWGRRSSCFGGRMDRIGAQSGLGCNSFRY-NH2
modifications: disulfide 12-28; N-terminus assumed
SMILES: CC[C@H](C)[C@@H]1NC(=O)[C@H](CCCNC(=N)N)NC(=O)[C@H](CC(=O)O)NC(=O)[C@H](CCSC)NC(=O)[C@H](CCCNC(=N)N)NC(=O)CNC(=O)CNC(=O)[C@H](Cc2ccccc2)NC(=O)[C@@H](NC(=O)[C@H](CO)NC(=O)[C@H](CO)NC(=O)[C@H](CCCNC(=N)N)NC(=O)[C@H](CCCNC(=N)N)NC(=O)CNC(=O)[C@H](Cc2c[nH]c3ccccc23)NC(=O)[C@H](CCCNC(=N)N)NC(=O)[C@H](Cc2ccccc2)NC(=O)[C@H](Cc2c[nH]cn2)NC(=O)[C@H](CCC(=O)O)NC(=O)[C@@H](N)CCSC)CSSC[C@@H](C(=O)N[C@@H](CC(N)=O)C(=O)N[C@@H](CO)C(=O)N[C@@H](Cc2ccccc2)C(=O)N[C@@H](CCCNC(=N)N)C(=O)N[C@@H](Cc2ccc(O)cc2)C(N)=O)NC(=O)CNC(=O)[C@H](CC(C)C)NC(=O)CNC(=O)[C@H](CO)NC(=O)[C@H](CCC(N)=O)NC(=O)[C@H](C)NC(=O)CNC1=O

Each binder was assayed against MCR1 receptor (on MCR1 receptor-expressing B16-F1 cells) (UniProt Q01727 1-315) (assay: cell-based or functional assay).
MCR1 receptor (on MCR1 receptor-expressing B16-F1 cells), sequence (Q01727 whole entry): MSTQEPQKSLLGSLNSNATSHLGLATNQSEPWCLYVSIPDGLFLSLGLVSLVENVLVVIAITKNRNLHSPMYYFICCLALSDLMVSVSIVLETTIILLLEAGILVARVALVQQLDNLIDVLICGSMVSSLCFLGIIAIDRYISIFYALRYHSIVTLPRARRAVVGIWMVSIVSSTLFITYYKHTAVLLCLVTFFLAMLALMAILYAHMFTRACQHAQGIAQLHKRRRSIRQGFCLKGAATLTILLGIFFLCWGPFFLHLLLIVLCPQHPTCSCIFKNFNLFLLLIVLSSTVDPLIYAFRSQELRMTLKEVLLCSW

Binder	EC50 on the production of cAMP (BC16-F1 cells)
B1	0.006 µM
B2	0.0098 µM
B3	0.0115 µM
B4	0.259 µM
B5	0.0209 µM
B6	0.0491 µM

Each binder was assayed against ANP receptor (on ANP receptor-expressing LLC-PK1 cells) (assay: cell-based or functional assay).

Binder	EC50 on the production of cGMP (LLC-PK1 cells)
B1	0.502 µM
B2	7 µM
B3	0.0521 µM
B4	0.0069 µM
B5	0.0743 µM
B6	0.0331 µM
